The assay addresses Purified recombinant HIV gp120, biotinylated (HIV) (UniProt P04578). The experiment in a line: SPR. On the technique in general: In SPR one partner is held on a chip, and binding of the other changes the refractive index at the surface.

For the substance “soluble recombinant human DC-SIGN extracellular domain (from UniProt Q9NNX6 59-404) (domain or fragment)”, the percent less binding in 20 mM glucose than in 5 mM glucose came to 33%.

The values above are taken from article PMC3088832.
